Measurements published in paper PMC4554727, “Flexible Structure of Peptide-Bound Filamin A Mechanosensor Domain Pair 20–21” (PLoS ONE, 2015).

What was measured:
[1] = target: T1, IgFLNaΔA20–21 (filamin A domains 20–21 lacking the first β strand of domain 20, residues 2151–2329) (UniProt P21333 2151-2329); assay: SAXS; 277 K; 20 mM Tris pH 8.0, 100 mM NaCl, 10 mM DTT; 1–4 mg/ml IgFLNa20–21 or IgFLNa∆A20–21; two times molar excess of migfilin peptide where added; settings: both partners purified
T1 construct: filamin A (FLNa), Ig-like domains 20–21 without the A strand of domain 20 (2141–2150), residues 2151–2329; residues 2151–2235 form domain ΔA20 and 2236–2329 domain 21; 15N (and 13C) isotope-labelled for the NMR experiments; same construct; also called IgFLNa∆A20–21; IgFLNΔAa20–21; source: E. coli BL21, purified (Glutathione Sepharose, TEV cleavage, size-exclusion chromatography)
T1 sequence (looked up): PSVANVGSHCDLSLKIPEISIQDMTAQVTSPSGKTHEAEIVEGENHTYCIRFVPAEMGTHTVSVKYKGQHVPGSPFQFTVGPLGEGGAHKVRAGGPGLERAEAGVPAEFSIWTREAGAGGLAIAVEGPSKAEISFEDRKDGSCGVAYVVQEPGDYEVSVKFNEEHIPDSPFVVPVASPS

[2] = target: T2, IgFLNa20–21 (filamin A immunoglobulin-like domains 20–21, residues 2141–2329) (UniProt P21333 2141-2329); assay: as above; settings: both partners purified
T2 construct: Cloned into a modified pGEX vector; also called FLNa mechanosensor domain pair 20–21; source: E. coli BL21, purified (Glutathione Sepharose, TEV cleavage, size-exclusion chromatography)
T2 sequence (looked up): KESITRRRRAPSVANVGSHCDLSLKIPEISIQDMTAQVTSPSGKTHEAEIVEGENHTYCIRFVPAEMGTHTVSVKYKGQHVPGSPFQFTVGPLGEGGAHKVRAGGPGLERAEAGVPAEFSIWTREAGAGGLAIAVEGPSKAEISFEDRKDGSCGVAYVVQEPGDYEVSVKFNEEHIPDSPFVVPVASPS

[3] = target: T3, IgFLNaΔA20–21 (filamin A domains 20–21 lacking the first β strand of domain 20, residues 2151–2329) (Homo sapiens (Human), UniProt P21333); assay: NMR HSQC titration, crystal structure
T3 chain: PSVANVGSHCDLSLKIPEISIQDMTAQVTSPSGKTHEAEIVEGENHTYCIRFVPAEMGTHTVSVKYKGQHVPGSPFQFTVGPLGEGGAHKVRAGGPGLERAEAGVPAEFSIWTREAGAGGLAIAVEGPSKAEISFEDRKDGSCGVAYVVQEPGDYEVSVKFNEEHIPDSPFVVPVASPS

[4] = target: T4, IgFLNa20–21 (filamin A immunoglobulin-like domains 20–21, residues 2141–2329) (Homo sapiens (Human), UniProt P21333); assay: SAXS
T4 chain: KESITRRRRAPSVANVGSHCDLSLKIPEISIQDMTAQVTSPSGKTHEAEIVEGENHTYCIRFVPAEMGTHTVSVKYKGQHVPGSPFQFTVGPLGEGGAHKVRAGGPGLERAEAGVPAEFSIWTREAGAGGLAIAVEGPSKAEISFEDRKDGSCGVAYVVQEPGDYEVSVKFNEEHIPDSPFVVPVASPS

Measured: binding result

B1: migfilin peptide (residues 5–28) (peptide)
peptide: PEKRVASSVFITLAPPRRDVAVAE
notes: migfilin, residues 5–28; it is removed here; Only residues 6–20 are seen in the crystal structure; also called migfilin^5–28 peptide; migfilin-derived peptide; source: bought: EZBiolab (Westfield, IN)
binds: all assays above
